Target: T1, 人心肌肌钙蛋白I (cTnI) (human, UniProt P19429 1-210, limits assumed)
T1 construct: Both are treated here as one molecule; also called cTnI蛋白; cTnI质控品重组蛋白
Assay: BLI (AMC sensor), antibody captured, cTnI recombinant protein in solution

T1 sequence (P19429 whole entry): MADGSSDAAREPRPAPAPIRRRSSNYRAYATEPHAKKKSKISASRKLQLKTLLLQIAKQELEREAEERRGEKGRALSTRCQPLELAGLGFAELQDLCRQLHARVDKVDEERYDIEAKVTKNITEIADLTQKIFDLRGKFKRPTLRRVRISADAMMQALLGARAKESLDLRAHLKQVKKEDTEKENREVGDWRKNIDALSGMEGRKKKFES

B1: Anti-cTnI 6E3 重组抗体 (WT) (antibody, mouse IgG1, kappa, V domains shown)
VH: EVQLQQSGPEVVKPGASVKISCKASGFIFSGQTMNWVKQSGEKNLEWIGLLNPSDNTTYNNKFKGKATLTVDKSSNTAYMQLLSLTSEDSAVYYCSSFGSWAQGTLVTVSA
VL: DIVLTQSPASLAVSLGQRATISCKASNSIDYEGDSYMNWYQQKPGQSPKLLIFVASLVDSGIPARFSASGSGTDFTLNIHPVEEEDAATYYCQQTYEGPWTFGGGTKLEIKR
notes: also called 样品1的抗体; Anti-cTnI 6E3单克隆抗体
Kd: 65.5 nM
koff: 0.00278 s⁻¹
kon: 42500 M⁻¹ s⁻¹

— patent publication CN111018978A (DONGGUAN PENGZHI BIOTECHNOLOGY CO LTD, dated 2020)
